Results on three molecules are retold here after PMC10087552, “Non‐canonical binding of the Chaetomium thermophilum PolD4 N‐terminal PIP motif to PCNA involves Q‐pocket and compact 2‐fork plug interactions but no 3_10 helix” (The Febs Journal, 2022).

Assay [1] addresses Chaetomium thermophilum PCNA (proliferating cell nuclear antigen) (Chaetomium thermophilum). Description: crystal structure; co-crystallisation of Ct PCNA with the peptide; 0.2 M calcium acetate, 0.1 M sodium cacodylate pH 6.5, 36% PEG 300; 2.45 Å, space group P1, two trimers in the asymmetric unit.
Assay [2] shares this target. Description: crystal structure; apo Ct PCNA; 0.1 M PTCP buffer pH 5.0, 25% PEG 1500; 2.34 Å, space group H3, a single chain in the asymmetric unit.
For a further assay, the target named is human PCNA. Conditions: human PCNA–p12 PIP peptide interaction; ref [25]; read-out: dissociation constant (K D); cited from earlier work. As for the experimental part: To examine the interaction between the Ct PolD4 PIP motif and Ct PCNA in greater detail and in the absence of GST, isothermal titration calorimetry (ITC) was used to determine the binding affinity of PCNA for a 15 amino acid synthetic PolD4 PIP peptide (sequence: ^21KHQSTLNFKHRVTKP^35) and the stoichiometry of the interaction (Fig. 4C). The dissociation constant (K D) was determined to be 22 ± 0.6 μM at 25 °C, broadly similar to that reported for the human PCNA–p12 PIP peptide interaction (38 ± 4 μM). The stoichiometry was determined to be 1 : 1 (i.e. 1 peptide : 1 PCNA protomer) indica ... || Three amino acids are key to interactions between Ct PolD4 and Ct PCNA: Gln23, Leu26 and Phe28. All three are strictly conserved in PolD4 proteins from fungal species closely related to C. thermophilum (Fig. 3). The sidechain of Gln23 inserts into the Q‐pocket on PCNA while the sidechains of Leu26 and Phe28 insert into the hydrophobic pocket located under the interdomain connector loop (IDCL) on the surface of PCNA (Figs 5 and 6A, upper left panel). The human p12 protein lacks the glutamine, equivalent to Gln23, that marks the start of the canonical PIP motif (Qxxψxxθθ), instead having a lysin ...

Assay [3] deals with Chaetomium thermophilum PCNA (proliferating cell nuclear antigen) (Chaetomium thermophilum). Description: ITC; Ct PolD4 PIP peptide (400 uM) titrated into Ct PCNA (30 uM) in the cell, 25 °C, 50 mM Tris-HCl, 50 mM NaCl, pH 8.0; single-site binding model; duplicate.

Consider “Chaetomium thermophilum PCNA (proliferating cell nuclear antigen) (natural protein)”, for which the stoichiometry N in assay [1] and in assay [2] was 3 protomers in each case.
Regarding “RKRLITDSYPVV [human p12 PIP peptide, N‐terminal PIP motif peptide of the human Pol δ subunit p12 (PolD4)]”, the Kd on human PCNA was 38 ± 4 µM.
With KHQSTLNFKHRVTKP [Ct PolD4 PIP peptide (residues 21-35 of Chaetomium thermophilum PolD4)], in assay [3], the Kd worked out at 22 µM and the stoichiometry N (peptide per PCNA protomer) amounted to 1.
